# Test results published in article PMC5623874 (Frontiers in Immunology, 2017).
# Assays:
# [1] = molecular target: the molecule itself; assay: transmission electron microscopy of HA-NP and sdAb mixtures
# [2] = molecular target: T1, Marburgvirus (Marburg Musoke) nucleoprotein, polymeric (Marburg virus, Musoke, UniProt P27588); assay: ELISA; details: both partners purified
# T1 construct: source: HEK 293T, transient transfection, purified (CsCl gradient)
Binder,binding result [1],binding result [2]
"HA-tagged Marburgvirus (Marburg Musoke) nucleoprotein, polymeric (natural protein, also called MARV HA-NP; HA-NP) MDLHSLLELGTKPTAPHVRNKKVILFDTNHQVSICNQIIDAINSGIDLGDLLEGGLLTLCVEHYYNSDKDKFNTSPVAKYLRDAGYEFDVIKNADATRFLDVSPNEPHYSPLILALKTLESTESQRGRIGLFLSFCSLFLPKLVVGDRASIEKALRQVTVHQEQGIVTYPNHWLTTGHMKVIFGILRSSFILKFVLIHQGVNLVTGHDAYDSIISNSVGQTRFSGLLIVKTVLEFILQKTDSGVTLHPLVRTSKVKNEVASFKQALSNLARHGEYAPFARVLNLSGINNLEHGLYPQLSAIALGVATAHGSTLAGVNVGEQYQQLREAAHDAEVKLQRRHEHQEIQAIAEDDEERKILEQFHLQKTEITHSQTLAVLSQKREKLARLAAEIENNIVEDQGFKQSQNRVSQSFLNDPTPVEVTVQARPMNRPTALPPPVDDKIEHESTEDSSSSSSFVDLNDPFALLNEDEDTLDDSVMIPGTTSREFQGIPEPPRQSQDLNNSQGKQEDESTNRIKKQFLRYQELPPVQEDDESEYTTDSQESIDQPGSDNEQGVDLPPPPLYAQEKRQDPIQHPAANPQDPFGSIGDVNGDILEPIRSPSSPSAPQEDTRMREAYELSPDFTNDEDNQQNWPQRVVTKKGRTFLYPNDLLQTNPPESLITALVEEYQNPVSAKELQADWPDMSFDERRHVAMNL",binds,
"anti-MARV NP sdAb C monomer (pecan126) (VHH, also called anti-MARV sdAb C; source: E. coli HBV88 periplasm, purified (IMAC, gel filtration)) VHH: KVQLQESGGGLVQVGGSLRLSCKASGFTFRSSAMGWYRRAPGKQRELVASLTTTGTADYGDFVKGRFTISRDNAENTVDLHMNSLKPEDTAVYYCHEDPYGMESLRYWGQGTQVTVSS",,binds
"anti-MARV NP sdAb B monomer (pecan126) (VHH, also called anti-MARV sdAb B; source: E. coli HBV88 periplasm, purified (IMAC, gel filtration)) VHH: KVQLQESGGGLVQAGGSLRLSCAASGGTFSINTLGWYRRAPGKEREFVARISSGGITRYADSVKGRFTISRDNGKNTVYLDMNSLKPEDTAVYYCMYRNWGGGLDVYWGQGTQVTVSS",,binds
"anti-MARV NP sdAb A monomer (pecan126) (VHH, also called anti-MARV sdAb A; source: E. coli HBV88 periplasm, purified (IMAC, gel filtration)) VHH: EVKLQESGGGLVQAGESLRLSCAVPPEVFDIRTVAWYRQVPLGKGRELLSSITPWNKTTYEDSVKDRFTISRDNAKYTVYLQMNDLKPEDTAVYYCAQGWGIASMRYWGQGTQVTVSS",,binds
